Earlier results on one substance are cited in PMC10385628.

The target in this data set is neuropilin-1 (Homo sapiens) (UniProt O14786).
UniProt O14786, sequence (O14786 22-856): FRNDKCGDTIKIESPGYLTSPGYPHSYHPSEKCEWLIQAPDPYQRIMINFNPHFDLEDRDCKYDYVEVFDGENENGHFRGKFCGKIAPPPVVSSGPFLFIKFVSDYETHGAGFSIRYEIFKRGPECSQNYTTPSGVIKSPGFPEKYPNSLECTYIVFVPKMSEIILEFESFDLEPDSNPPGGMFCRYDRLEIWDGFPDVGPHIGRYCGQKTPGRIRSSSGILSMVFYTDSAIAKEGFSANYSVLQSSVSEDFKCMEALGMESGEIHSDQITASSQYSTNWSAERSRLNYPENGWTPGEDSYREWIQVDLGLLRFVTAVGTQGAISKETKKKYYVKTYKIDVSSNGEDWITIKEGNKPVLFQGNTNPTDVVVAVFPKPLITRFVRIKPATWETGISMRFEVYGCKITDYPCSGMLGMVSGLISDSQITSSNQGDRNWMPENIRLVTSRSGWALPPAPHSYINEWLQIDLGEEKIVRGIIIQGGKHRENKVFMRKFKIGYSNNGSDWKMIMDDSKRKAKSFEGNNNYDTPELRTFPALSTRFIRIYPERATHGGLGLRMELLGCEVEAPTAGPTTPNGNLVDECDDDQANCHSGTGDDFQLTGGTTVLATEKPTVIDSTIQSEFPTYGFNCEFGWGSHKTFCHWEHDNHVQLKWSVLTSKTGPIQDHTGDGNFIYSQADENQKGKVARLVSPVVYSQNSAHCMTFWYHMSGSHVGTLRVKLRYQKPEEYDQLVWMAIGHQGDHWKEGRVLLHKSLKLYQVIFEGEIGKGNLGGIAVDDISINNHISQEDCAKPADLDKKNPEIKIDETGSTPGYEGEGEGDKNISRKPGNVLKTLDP

The term Kd denotes the concentration at which binding is half-saturated. Turning to KDKPPR peptide, the Kd was 500 nM.
